Laboratory results taken from the RNAGym collection of RNA variant scans (doi:10.1073/pnas.2313332121).

B1: TPR t1 (parent)
chain: GACCAAUCUGCCCUCAGAGCUCGAGAACAUCUUCGGAUGCAGAGGAGGCAGGCUUCGGUGGCGCGAUAGCGCCAACGUCCUCAACCUCCAAUGCAUCCCACCACAUGAUGAUGCCUGAAGAGCCUUGGUUUUUUG

Variants of: B1
Assay: polymerase ribozyme fitness, log enrichment relative to wild type (log ratio); higher = more active; in vitro selection for triplet polymerase activity
Method in brief: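 Mutant libraries were PCR-built and transcribed for each subunit of a heterodimeric triplet polymerase ribozyme and selected for one round in triplicate at −7 °C, frozen, before gel excision of extended constructs and streptavidin-bead capture. Input and output libraries were Illumina-sequenced, keeping genotypes with ≥10 input reads and ≥1 read per output. Fitness is a logarithmic ratio of genotype to wild-type enrichment, in base 2, using inverse-variance-weighted replicate averages.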

Variant | polymerase ribozyme fitness (log ratio)
GACCAAUCUGCUCUCAGAGCUCGAGAACAUCUUCGGAUGCAGAGGAGGCAGGCUUCGGUGGCGCGAUAGCGCCAACGUCCUCAACCUCCAAUGCAUCCCACCACAUGAUGAUGCUUGAAGAGCCUUGGUUUUUUG [C12U C115U] | -0.992
GACCAAACUGCCCUUAGAGCUCGAGAACAUCUUCGGAUGCAGAGGAGGCAGGCUUAGGUGGCGCGAUAUCGCCAACGUCCUCAACCUCCAAUGCAUCCCACCACAGGAUGAUGCCUGAACAGCCUUGGUUUUUUG [U7A C15U C56A G69U U106G G120C] | -0.793
GACCAAUCUGCCCUCAGCGCUCGAGAACAUCCUCGGAUGCAGAGGAGGCAGGCUUCGGUGGCGCGAUAGCGCCAACGUCCUCAACCUCCAAUGCAUCCCACCACAUGAUGAUGCCUGAAGAGCCUUGGUUUUUUG [A18C U32C] | -2.05
GACCAAUAGGCCCUCAGAGCGCGAGAACAUCUUCGGAUGCAGAGGAGGCAGGCUUCGGUGGCGCGAUAGCGCCAACGUCCUCAACCUCCAAUGCAUCCCACCACAUGAUGAUGCCUGAAGAGCCUUGGUUUUUUG [C8A U9G U21G] | -1.13
GACCAAUGUGCCCUCAGAGCUCGAGAACAUCUUCGGAUGCAGAGGAGGCAGGCUUCGGUGGCGCGAUAGCGCCAACGUCCUCAACCUCCAAUGCAUCCCACCACAGGAUGAUGUCUGAAGAGCCUUGGUUUUUUG [C8G U106G C114U] | -1.28
GACCAAUCUGCCCUCAGAGCUCGAAAACAUCUUCGGAUGCAGAGGAGGCAGGCUUCGGUGGCGCGAUAGCGCCAACGUCCUCAACCUCCAAUGCAUCCCACCACAUGAUGAUGCCUGAAGAGCUUUGGUUUUUUG [G25A C124U] | -5.31
GACCAAUCUGCCCUCAGAUCUCGAGAACAUCUUCGGAUGCCGAGGAGUCAGGCUUCGGUGGCGCGAUAGCGCCAACGUCCUCAACCUCCAAUGCAUCCCACCACAUGAUGAUGCCUGAAUAGCCUUGGUUUUUUG [G19U A41C G48U G120U] | -4.33
GGCCAAUCUGCCCUCAGAUCUCGAGAACAUCUUUGGAUGCAGAGGAAGAAGGCUUCGGUGGCGCGAUAGCGCCAACGUCAUCAACCUCCAAUCCAUCCCACCACAUGAUGAUGCCUGAAUAGCCUUGGUUUUUUG [A2G G19U C34U G47A C49A C80A G93C G120U] | -6.24
GACCGAUCUGCCAUCAGAGCUCGAGAACAUCUUCGGAUGCAGAGGAGGCAGGCUUCGGUGACGCGAUAGCGCCAACGUCCUCAACCUCCAAUGCAUCCCACCACAUGAUGAUGCCUGAAGAGCCUUGGUUUUUUG [A5G C13A G61A] | -1.98
GACCAAUCUGCCCUCAGAGCUCGAGAACAUCUUCGGAUGCAGAGGAGGCAGGCUUCGGUGGCGCGAUAUCGCCAACGUCCUCAACCUACUAUGCAUCCCACCACAUGAUGAUGCCUGAAGAGCCUUGGUUUUUUG [G69U C88A A90U] | 0.178
GACCAAUCUGCCCUCAGUGCUCGAGAACAUCUUCGGAUGCAGAGGAGGCAGGCUUCGGUGGCGCGAUAGCACCAACGUCCUCAACCUCCAAUGCAUCCCACCACAUGAUGAUGCCUGAAGAGCCUUGGUUUUUUG [A18U G71A] | -2.85
GACCAAUCUGCCCUCAGAGCUCGAGAACUUCUUCGGAUGCAGAGGAGGCAGGAUUCGGUGGCGCGAUAGCGCCAACGUCCUCAACCUCCAAUGCAUCCCACCACAUGAUGAUGCCUGAAGAGCCUUGGUUUUUUG [A29U C53A] | -1.37
GACCAAUCUGCCCUCAGAGCUCGAGAACAUCUUCGGAUGCAGAGGAGGCAGGCUUCGGUGGCGCGAUAUCGCCAACGUCCUCAACCUCCAAUGCAUCCCACCACAUGAUGAUGCCUGAGGAGCCUUGGUUUUUUG [G69U A119G] | 1.7
GACCAAUCUGCCCUUAGAGCUCGAGAACAUCUUCGGAUGCAGAGGAGGCAGGCUUCGGUGGCCCGAUAGCGCCAACGUCCUCAACCUCCAAUGCAUCCCACCACAUGAUGAUGCCUGAAGAGCCUUGGUUUUUUG [C15U G63C] | -2.18
GACCAAUCUGCCCUCAGAGCUCGAGAACAUCUUCGGAUGCAGAGGAGGCAGGCUUCGGUGGCGCGAUAGCGCCAACGUCCUCAACCUCCAAUGCAUCCCACCACAUGAUGAUGCCUCAAGAGCCUUGGUUUAUUG [G117C U132A] | -3.52
GACCAAUCUACCCUCAGAGCUCGAGAACAUCUUAGGAUGCAGAGGAGGCAGGCUUCGGUGGCGCGAUAGCGCCAACGUCCUCAACCUCCAAUGCAUCCCACCACAUGAUGAUGCCUGAAGAGCCUUGGUUUUUUG [G10A C34A] | -2.87
GACCAAUCUGCCCUCAGACCUCGAGAACAUCUUCGGAUGCACAGGAGGCAGGCUUCGGUGGCGCGAUAGCGCCAACGUCCUCAACCUCCAAUGCAUCCCACCACAUGAUGAUGCCUGAAGAGCGUUGGUUUUUUG [G19C G42C C124G] | -0.406
GACCAAUCUGCCCUCAGAGCUCGAGAACAUCUUCGGAUGCACAGGAGGUAGGCUUCGGUGGCACGAUAGCGCCAACGUCCUCAACCUCCAAUGCAUCCCACCACAUGAUGAUGCCUGAAAAGCCUUGUUUUUUUG [G42C C49U G63A G120A G128U] | -5.69
GACCAAACUGCCCUCAGAGCUCGAGAACAUCUUCGGAUGCAGAGGAGGCAGGCUUCGGUGGCGCGAUAGCGCGAACGUCCUCAACCUCCAAUGCAUCCCACCACAUGAUGAUGCCUGAAGAGCCUUGGGUUUUUG [U7A C73G U129G] | -2.6
GACCAAUCUGCCCUCAGAGCUCGAGAACAUCUUCGGAUGCAGAGGAGGCAGGCUUCGGUGACGCGAUAGCGCCAACGUCCUUAACCUCCAAUGCAUCCCACCACAUGAUGAUGCAUGAAGAGCCUUGGUUUUUUG [G61A C82U C115A] | 0.0919
GACCAAUCUGCCCUCAGAGCUCGAGAACAUCUUCGGAUGCAGAGGAGGUAGGCUUCGGUGGCGCGAUAGCGGCAACGCCCUCAACCUCCAAUGCAUCCCACCACAUGAUGAUGCCUGAAGAGCCUUGGUUUUUUG [C49U C72G U78C] | -1.33

Variant | polymerase ribozyme fitness (log ratio)
GACCAAUCUGCCCUCAGAGCUCGAGAACAUCUUCGGAUGCAGAGGAGGCAGGCUUGGGUGGCGCGAUAGCGACAACGUCCUCAACCUCCAAUGCAUCCCACCACAUGAUGAUGCCUGAAGAGCCUUGGUUUUUUG [C56G C72A] | -2.48
GACCAAUCUGCCCUCAGAGCUGGAGAACAUCUUCGGAUGCAGAGGAGGCAGGCUUCGGUGACGCGAUAGCGCCAACGUCCUCAACUUCCAAUGCAUCCCACCACAUGAUGAUGCCUGAAGAGACUUGGUUUUUUG [C22G G61A C86U C123A] | -4.09
GACCAGUCUGCCCUCAGAGCUCGAGAACAUCUUCGGAUGCAGAGGAGUCAGCCUUCGGUGGCGCGAUAGCGCGAACGUCCUCAACCUCCAAUGCAUCCCACCACAUGAUGAUGCCUGAAGAGCCUUGGUUUUUUG [A6G G48U G52C C73G] | -3.58
GACCAAUCUGCCCUCAGAGCUCGAGAACAUCUUCGGAUGCAGCGCAGGCAGGCUUCGGUGGCCCGAUAGCGCCAACGUCCUCAACCUCCAAUGCAUCCCACCACAUGAUGAUGCCUUUAGAGCCUUGGUUUUUUA [A43C G45C G63C G117U A118U G135A] | -5.43
GACCAAUCUGCCCUCAGAGCUCGAGAACAUCUUCGGAUGCAGAGGAGGCAGGCUUCGGUGGGGCGAUAGCGCCAACGUCCUCAACCUCCAAUGCAUCCCACCACAUGAUGAUGCCUGAAGAGCCUUGGUUUUUUG [C62G] | -1.53
GACCAUUCUGCCCUCAGAGCUCGAGAACAUCUUCGGAUGCAGAGGAAGCAGGCUUCGGUGGCGCGAUAGUGCCAACGUCCUCAACCUCCAAUGUAUCCCACCACAUGAUGAUGCCUGAAGAGCCUUGGUUUUUUG [A6U G47A C70U C94U] | -1.74
GACCAAUAUGCCCUCAGAGCUCGAGAACAUCUUCGGAUGCAGAGGAGGUAGGCUUCGGUGGCGCGAUAGCGCUAACGUCCUCAACCUCCAAUGCAUCCCACCACAUGAUGAUGCCUGAAGAGCCUUGGUAUUUUG [C8A C49U C73U U130A] | -0.88
GACCAAUCUGCCCUCAGAUCUCGAGAACAUCUUCGGAUGCAGAGGAGGCAGGCGUCGGUGGCGCGAUGGGGCCAACGUCCUCAACCUCCAAUGCAUCCCACCACAUGAUGAUGCCUCAAGAGCCUUGGUUUUUUG [G19U U54G A68G C70G G117C] | -5.56
GACCAAUCUGCCCUCAGAGCUCGAGAACAUCUUCGGAUGCAGAGGAGGCAGGCUUCGGUGGCGCGAUAUCGCCAACGUCCUCAACCUCCAAUGCAUCCCACCAGAUGAUGAUGCCUGAAGAGCCUUGGUUUUGUG [G69U C104G U133G] | -5.17
GACCAAUCUGCCCUCAGAGCUCGAGAACAUCUUCGGAUGCAGAGGAGGCAGGCUUCGGAGGCGCGAUAGCGCCAACGUCCUCAAACUCCAAUGAAUCCCACCACAUGAUGAUGCCUGAAAAGCCUUGGUUUUUUG [U59A C85A C94A G120A] | -0.6
GACCAAUCUGCCCUCAGAGCUCGAGAACAUCUUCGGAUGCAGAGGAGGCAGGCUUCGGUGGCGCGAUAGCGCCAACGUCCUCAACUUCCAAUGCAUCCCUCCACAUGAUAAUGCCUGAAGAGCCUUGGGUUUUUG [C86U A100U G110A U129G] | -3.54
GACCAAUCUGCCCUCAGAGCUCGAGAACAUCUUCGGAUGAAGAGGAGGCAGGCUUCGGUGGCGCGAUAGCUCCAACGUCCUCAACCUCCAAUGCAUCCCACCACAUGAUGAUGCCUGAAGAGCCUUGGUUAUUUG [C40A G71U U131A] | -2.31
GACCAAUCUGCCCUCAGAGCUCGAGAACAUCUUCGGAUGCAGAGGAGGCAGGCUUCGGUGGCGCGAUAGCGCCAACGUCCUCAACCUCCAAUGCAUCCCACCACUUGAUGAUGCCUGAAGAGCUUUGGUUUUUUG [A105U C124U] | -0.354
GACCAAUCUGCCCUCAGAGCUCGAGAACUUCUUCGGAUGCAGAGGAGGCAGGCUUUGGUGGCGCGAUAGCGCUAACGUCCUCAACCUCCAAUGCAUCCCACCACAUGAUGAUGCCUGAAGAGCCUUGGUUUUUUG [A29U C56U C73U] | -1.33
GACCAAUCUGCCCUCAGAGCUCGAGAACAUCUUCGGAUGCAGGGGAGGCAGGCUUCGGUGGCGCGAUAGCGCCAACGUCCUCAACCUCCAAUGCAUCCCACCACAUGAUGAUGUCUGAAGAGCCUUGGUUUUUUG [A43G C114U] | -1.57
GACCAAUCUGCCCUCAGAGCUCGAGAACAUCUUCGGAUCCAGAGGAGGCAGGCUUCGGUGGCCCGAUAGCGCCAACGUCCUCAACCUCCAAUGCAUCCCACCACAUGAUGAUGCCUGAAGAGCCUUGGUUUUUUG [G39C G63C] | -1.54
GACCAAUCUGACCUCAGAGCUCGAGAACAUCUUCGGAUGCAGAGGAGGCAGGCUUCGGUGGCUCGAUAGCGCCAACGUCCUCAACCUCCAAUGCAUCCCACCACAUGAUGAUGCCUGAAGAGCCUUGGUUUUUUG [C11A G63U] | -1.77
GUCCAAUCUGCACUCAGAGCUCGAGAACAUCUUCGGAUGCAGAGGAGGCAGGCUUCGGUGGCUCGAUAGCGCCAACGUCCUCAACCUCCAAUGCAUCCCACCAGAUGACGAUGCCUGAAGAGCCUUGGUUUUUUG [A2U C12A G63U C104G U109C] | -6.12
GACCAAUCUGCCCUCAGAGCUCGAGAAGAUCUUCGGAUGCAGAGGAGGCAGGCUUCGGUGGCGCGAUAGCGCCAACGUCCUGAACAUCCAAUGCAUCCCACCACAUGAUGAUGCCUGAAGAGCCUUGGUUUUUUG [C28G C82G C86A] | -3.55
GACCAAUCUGCCCUCAGUGCUCGAGAACAACUUCGGGUGCAGAGGAGGCAGGCUUCGGUGGCGCGAUAGCGCCAACGUCCUCAACCUCCAAUGCAUCCCACCACAUGUUGAUGCCUGAAGAGCCUUGGUUUUUUG [A18U U30A A37G A108U] | -3.64
GACCAAUCUGCCCUCAGAGCUCGAGAACAUCUUCGGAUGCAGAGGAGGCAGUCUUCGGUGGCGCGAUAGCGCCAACGUCCUCAACCUCCAAUGUAUCCCACCACAAGAUGAUGCCUGAGGAGCCUUGGUUUUUUG [G52U C94U U106A A119G] | -0.397
